From article PMC7708047, “VEZF1–guanine quadruplex DNA interaction regulates alternative polyadenylation and detyrosinase activity of VASH1”

T1: VEZF1-3xFlag (Homo sapiens, UniProt Q14119 1-521)
T1 sequence: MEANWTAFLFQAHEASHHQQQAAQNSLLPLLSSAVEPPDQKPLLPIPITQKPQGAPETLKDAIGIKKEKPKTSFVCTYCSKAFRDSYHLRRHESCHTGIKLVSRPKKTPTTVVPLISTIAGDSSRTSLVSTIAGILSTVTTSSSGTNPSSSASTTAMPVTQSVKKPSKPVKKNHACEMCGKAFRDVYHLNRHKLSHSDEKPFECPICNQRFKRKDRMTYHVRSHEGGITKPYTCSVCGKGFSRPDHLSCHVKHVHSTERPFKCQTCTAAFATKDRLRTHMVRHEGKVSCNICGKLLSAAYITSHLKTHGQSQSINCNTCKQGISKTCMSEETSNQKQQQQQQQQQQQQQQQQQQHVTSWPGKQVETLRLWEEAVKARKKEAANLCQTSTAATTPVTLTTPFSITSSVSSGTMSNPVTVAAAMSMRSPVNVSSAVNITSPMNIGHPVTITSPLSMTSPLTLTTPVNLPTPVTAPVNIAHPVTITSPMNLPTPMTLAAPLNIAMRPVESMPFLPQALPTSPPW

B1: R1M4-2 (ssDNA)
DNA: TCGTGAGTGTGGAGTGAGGTGCTGTGCCTGAGCTGAGAGCAGCTTAGTTTGCA

Molecular target: T1, VEZF1-3xFlag
Test: EMSA; 100 mM K+, 10 uM Zn2+; EMSA: 25 nM DNA, 10 mM Tris-HCl pH 7.5, 100 mM KCl, 10 uM ZnCl2, 1 mM DTT, 3% glycerol, on ice 30 min; 6% PAGE in TBE pH 8.3, 4 C
Settings: protein: recombinant, tags: C-terminal 3xFlag, label: 5'-TAMRA

| Binder | binding result (single strand) | Kd (G4) [µM] | other results |
| --- | --- | --- | --- |
| TGAGGGTGAGGAGTGTGGGGA (ssDNA) [MYC M4] | no binding |  |  |
| B1 | no binding |  |  |
| AAAGGGTTAGGGTTAGGGTTAGGGAA (structured_DNA) [hTEL G4] |  | 0.78 ± 0.04 |  |
| TGAGGGTGGGGAGGGTGGGGA (structured_DNA) [MYC G4] |  | 2.06 ± 0.12 |  |
| AAAGGGTTAGTGTTAGTGTTAGGGAA (ssDNA) [hTEL M4] |  |  | Kd (single strand): 1.64 ± 0.07 µM |
| GTGTGAGGTGGAAGTGAAAGAAGTGAAGAGCAGTGAGAGTGTGCC (ssDNA) [R1M4-1] | no binding |  |  |
